Positions count from the first letter of the chain named. Names may count otherwise.
T1: human MST1 SARAH domain (residues 432–480) (human) (UniProt Q13043)
T1 sequence: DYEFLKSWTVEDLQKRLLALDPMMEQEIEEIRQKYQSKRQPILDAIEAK

B1: RASSF5 SARAH domain double mutant (E388A and K398A) (domain or fragment)
chain: EVEWDAFSIPELQNFLTILEKEAQDKIQQVQKAYDKFRQKLEEALRESQGKPG
B2: human RASSF5 SARAH domain (residues 366–418) (domain or fragment, UniProt Q8WWW0 366-418, looked up)
chain: B1 chain with A23E, A33K
B3: human MST1 SARAH domain (residues 432–480) (domain or fragment, UniProt Q13043 432-480, looked up)
chain: T1 sequence
notes: mammalian sterile 20-like kinase 1 (MST1, KRS-2), human, 487 residues, SARAH domain residues 432-480; A selenomethionine-labelled form (E. coli B834 (DE3)) was used for SAD phasing; also called KRS-2; hMST1; source: E. coli BL21, GST fusion protein, purified as described previously (Hwang et al., 2007)
B4: human MST2 SARAH domain (residues 436–484) (domain or fragment, UniProt Q13188 436-484, looked up)
chain: DFDFLKNLSLEELQMRLKALDPMMEREIEELRQRYTAKRQPILDAMDAK
notes: mammalian sterile 20-like kinase 2 (MST2, KRS-1), human, 491 residues, SARAH domain residues 436-484; Forms a homodimer (one homodimer in the asymmetric unit); also called KRS-1; hMST2; source: E. coli BL21, GST fusion protein, purified as described previously (Hwang et al., 2010)

Experiments:
[1] = target: T1, human MST1 SARAH domain (residues 432–480) (human)
[2] = target: B3; assay: cell-based or functional assay
[3] = target: the molecule itself; assay: cell-based or functional assay
[4] = target: B2; assay: crystal structure; MST1–RASSF5 SARAH heterodimer (domains mixed 1:2, heterodimer separated on Superdex 75 in 25 mM HEPES pH 7.0, 100 mM NaCl, 2 mM DTT); hanging drop, 20°C, 35% MPD, acetate pH 4.8; space group C222(1), one heterodimer in the asymmetric unit; SAD phasing with SeMet MST1; conditions: both partners purified
[5] = target: B2; assay: NMR titration; MST2 SARAH homodimer titrated with the RASSF5 SARAH domain in solution (Supplementary Fig. S7); conditions: both partners purified
[6] = target: the molecule itself; assay: crystal structure; MST2 SARAH homodimer, 40 mg/ml; hanging drop, 20°C, 2.0 M NaCl, 8% PEG 6000; space group P4(1)2(1)2, one homodimer in the asymmetric unit; molecular replacement

Binder: B1
transition concentration (C m) of urea, urea-induced denaturation of the double-mutant SARAH heterodimer followed by CD at 222 nm [1]: 3.2 M

Binder: B2
free energy of unfolding of the heterodimer, urea-induced denaturation followed by CD, two-state fit [2]: 4.8 kcal/mol

Binder: B3
free energy of unfolding of the homodimer, urea-induced denaturation followed by CD, two-state fit [3]: 2 kcal/mol
binding result [4]: binds

Binder: B4
binding result [5]: binds
binding result [6]: binds
